Measurements reported in patent US20250242041A1 (Seagen, published 2025).

Experiments:
[1] = target: T1, human αvβ6 on 293F:huβ6 cells (human, UniProt P06756 31-1048; P18564 22-788); assay: saturation binding by flow cytometry on 293F:huβ6 cells; also confirmed by competition binding
T1 construct: whole, on cells; also called HEK293F:huβ6
Experimental: 0.1×10⁶ antigen expressing cells were aliquoted in each well of a 96-well v-bottom plate on ice. The cells were incubated for 1 hour with 2 nM AlexaFluor-647 labeled humanized 2A2 HCLG and increasing concentrations (from 4 pM-1 uM) of unlabeled humanized 2A2 HCLG antibody and h2A2-Mdpr-PEG(12)-gluc-MMAE(8) in buffer (Tris-buffered saline, 2% fetal bovine serum, 0.5 mM MnCl₂, 0.02% NaN₃). Cells were pelleted and washed 3 times with TBS/FBS. The cells were pelleted and resuspended in 125 uL of TBS/FBS. Fluorescent signal of binding was detected using a Becton Dickinson Biosciences LSR II (San Jose, CA). Percent of saturated fluorescent signal was used to determine percent labeled humanized 2A2 antibody bound to cells and to subsequently extrapolate the EC50 by fitting the data to a sigmoidal dose-response curve with variable slope using GraphPad Software (LaJolla, CA).
0.1×10⁶ antigen expressing cells were aliquoted per well into a 96-well v-bottom plate. m2A2 and h2A2 HCLG were directly labeled with AlexaFluor-647 and added to cells at concentrations ranging from 6 pM-340 nM in buffer (Tris-buffered saline, 2% fetal bovine serum, 0.5 mM MnCl₂, 0.02% NaN₃). […] Fluorescent signal of binding was detected using a Becton Dickinson Biosciences LSR II (San Jose, CA). The EC50 was calculated using GraphPad Software (LaJolla, CA).

[2] = target: T2, recombinant human αvβ6 (R&D Systems) (human, UniProt P06756 31-992; P18564 22-707); assay: ELISA on coated recombinant integrin
T2 construct: Bought from R&D Systems, coated on the ELISA plate
Experimental: (§1) 96-well Maxisorb plates (Nunc) were coated overnight at 4° C. with 1 ug/ml of recombinant human αvβ1, αvβ3, αvβ5, αvβ6 and αvβ8 (R&D Systems, MN) diluted in 50 mM carbonate buffer (Sigma, MO). Plates were washed with PBS+0.05% Tween 20 (PBS-T). Wash buffer was removed and plates were blocked for 2 hours at room temperature in TBS blocking buffer (TBS, 0.05% Tween 20, 1% BSA). Plates were washed and then incubated for 2 hours with humanized 2A2 antibody diluted in TBS binding buffer (TBS, 0.05% Tween 20, 1% BSA, 1 mM MnCl₂) at concentrations that ranged from 1 pM-67 nM (10 ug/ml). Plates were washed, incubated for 1 hour with 1:5000 dilution of anti-human Fc-HRP (Jackson ImmunoResearch, PA), washed, and then incubated with TMB substrate for 5 minutes. The reaction was stopped with 1 M HCl. Absorbance at 450 nm was read using a Fusion HT plate reader (Perkin Elmer, Waltham, MA).

[3] = target: T3, recombinant human αvβ3 (human, UniProt P06756 31-992; P05106 27-718); assay: ELISA on coated recombinant integrin
T3 construct: Bought from R&D Systems
Experimental: as §1

[4] = target: T4, recombinant human αvβ5 (human, UniProt P06756 31-992; P18084 24-719); assay: ELISA on coated recombinant integrin
T4 construct: Bought from R&D Systems
Experimental: as §1

[5] = target: T5, recombinant human αvβ8 (human, UniProt P06756 31-992; P26012 43-684); assay: ELISA on coated recombinant integrin
T5 construct: Bought from R&D Systems
Experimental: as §1

[6] = target: T6, recombinant human αvβ1 (human, UniProt P06756 31-992; P05556 21-728); assay: ELISA on coated recombinant integrin
T6 construct: Bought from R&D Systems
Experimental: as §1

T6 sequence (P05556 21-728 limits assumed, one chain of several): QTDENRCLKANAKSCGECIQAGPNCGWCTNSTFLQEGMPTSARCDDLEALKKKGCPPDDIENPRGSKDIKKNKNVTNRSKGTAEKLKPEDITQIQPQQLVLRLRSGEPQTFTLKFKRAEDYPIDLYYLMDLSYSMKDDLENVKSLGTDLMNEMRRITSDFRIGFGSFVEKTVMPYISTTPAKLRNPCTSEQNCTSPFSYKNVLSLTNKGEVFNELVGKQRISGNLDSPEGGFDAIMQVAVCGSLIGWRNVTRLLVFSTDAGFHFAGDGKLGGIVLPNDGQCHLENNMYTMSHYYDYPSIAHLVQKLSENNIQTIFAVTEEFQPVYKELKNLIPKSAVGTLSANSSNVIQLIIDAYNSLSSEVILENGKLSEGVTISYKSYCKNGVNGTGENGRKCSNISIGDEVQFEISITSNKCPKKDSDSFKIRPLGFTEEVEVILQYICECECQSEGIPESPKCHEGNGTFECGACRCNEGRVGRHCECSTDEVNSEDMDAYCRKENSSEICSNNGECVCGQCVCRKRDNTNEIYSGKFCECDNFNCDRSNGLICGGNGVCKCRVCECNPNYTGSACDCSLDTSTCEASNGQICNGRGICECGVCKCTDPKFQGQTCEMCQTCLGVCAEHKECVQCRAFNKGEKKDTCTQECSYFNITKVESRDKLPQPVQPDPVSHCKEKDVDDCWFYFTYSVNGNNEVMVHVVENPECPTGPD
T3 sequence (P05106 27-718 limits assumed, one chain of several): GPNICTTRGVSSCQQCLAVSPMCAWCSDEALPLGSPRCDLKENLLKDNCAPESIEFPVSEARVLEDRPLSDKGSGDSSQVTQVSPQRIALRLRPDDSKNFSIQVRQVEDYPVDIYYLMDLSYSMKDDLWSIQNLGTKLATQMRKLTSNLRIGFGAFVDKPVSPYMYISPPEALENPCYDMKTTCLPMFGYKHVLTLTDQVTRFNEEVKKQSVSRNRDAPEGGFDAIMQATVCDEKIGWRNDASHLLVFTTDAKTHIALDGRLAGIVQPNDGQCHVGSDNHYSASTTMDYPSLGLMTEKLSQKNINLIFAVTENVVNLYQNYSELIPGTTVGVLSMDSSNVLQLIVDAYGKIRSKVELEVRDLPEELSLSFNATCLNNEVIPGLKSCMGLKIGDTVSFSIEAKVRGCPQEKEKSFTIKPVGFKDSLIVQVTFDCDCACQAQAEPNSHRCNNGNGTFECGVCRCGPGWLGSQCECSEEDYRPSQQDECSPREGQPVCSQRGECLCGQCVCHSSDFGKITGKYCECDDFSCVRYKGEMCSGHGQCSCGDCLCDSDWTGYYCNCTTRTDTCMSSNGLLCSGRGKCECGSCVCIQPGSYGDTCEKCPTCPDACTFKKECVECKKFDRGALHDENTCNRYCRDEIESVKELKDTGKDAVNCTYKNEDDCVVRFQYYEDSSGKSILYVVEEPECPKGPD
T1 sequence (P06756 31-1048, chain 1 of 2): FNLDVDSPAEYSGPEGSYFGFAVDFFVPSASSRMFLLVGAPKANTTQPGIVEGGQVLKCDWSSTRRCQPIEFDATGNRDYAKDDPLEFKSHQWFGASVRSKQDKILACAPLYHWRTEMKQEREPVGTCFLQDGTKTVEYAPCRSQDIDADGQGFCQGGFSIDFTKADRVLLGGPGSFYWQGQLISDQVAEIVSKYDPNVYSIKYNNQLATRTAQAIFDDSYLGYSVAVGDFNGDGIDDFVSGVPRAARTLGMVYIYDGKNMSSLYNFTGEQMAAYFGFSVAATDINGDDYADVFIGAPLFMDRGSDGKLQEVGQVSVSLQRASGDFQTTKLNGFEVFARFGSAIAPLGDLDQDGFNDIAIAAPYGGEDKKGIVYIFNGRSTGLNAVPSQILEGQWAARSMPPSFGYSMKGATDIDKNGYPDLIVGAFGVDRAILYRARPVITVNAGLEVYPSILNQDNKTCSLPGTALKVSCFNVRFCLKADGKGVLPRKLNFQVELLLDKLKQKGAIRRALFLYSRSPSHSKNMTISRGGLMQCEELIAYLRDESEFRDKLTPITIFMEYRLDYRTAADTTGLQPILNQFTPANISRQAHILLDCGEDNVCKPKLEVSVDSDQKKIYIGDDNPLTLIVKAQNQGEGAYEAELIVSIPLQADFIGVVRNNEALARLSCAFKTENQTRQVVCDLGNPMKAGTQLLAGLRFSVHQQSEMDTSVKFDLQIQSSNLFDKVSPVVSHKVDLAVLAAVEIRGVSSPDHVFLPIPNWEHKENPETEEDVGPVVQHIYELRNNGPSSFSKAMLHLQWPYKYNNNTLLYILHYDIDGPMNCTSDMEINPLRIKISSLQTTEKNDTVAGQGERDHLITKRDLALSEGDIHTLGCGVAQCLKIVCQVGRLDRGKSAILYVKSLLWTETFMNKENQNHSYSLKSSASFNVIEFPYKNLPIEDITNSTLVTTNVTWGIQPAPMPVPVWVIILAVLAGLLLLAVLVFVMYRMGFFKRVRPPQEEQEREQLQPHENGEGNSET
T1 sequence (P18564 22-788, chain 2 of 2): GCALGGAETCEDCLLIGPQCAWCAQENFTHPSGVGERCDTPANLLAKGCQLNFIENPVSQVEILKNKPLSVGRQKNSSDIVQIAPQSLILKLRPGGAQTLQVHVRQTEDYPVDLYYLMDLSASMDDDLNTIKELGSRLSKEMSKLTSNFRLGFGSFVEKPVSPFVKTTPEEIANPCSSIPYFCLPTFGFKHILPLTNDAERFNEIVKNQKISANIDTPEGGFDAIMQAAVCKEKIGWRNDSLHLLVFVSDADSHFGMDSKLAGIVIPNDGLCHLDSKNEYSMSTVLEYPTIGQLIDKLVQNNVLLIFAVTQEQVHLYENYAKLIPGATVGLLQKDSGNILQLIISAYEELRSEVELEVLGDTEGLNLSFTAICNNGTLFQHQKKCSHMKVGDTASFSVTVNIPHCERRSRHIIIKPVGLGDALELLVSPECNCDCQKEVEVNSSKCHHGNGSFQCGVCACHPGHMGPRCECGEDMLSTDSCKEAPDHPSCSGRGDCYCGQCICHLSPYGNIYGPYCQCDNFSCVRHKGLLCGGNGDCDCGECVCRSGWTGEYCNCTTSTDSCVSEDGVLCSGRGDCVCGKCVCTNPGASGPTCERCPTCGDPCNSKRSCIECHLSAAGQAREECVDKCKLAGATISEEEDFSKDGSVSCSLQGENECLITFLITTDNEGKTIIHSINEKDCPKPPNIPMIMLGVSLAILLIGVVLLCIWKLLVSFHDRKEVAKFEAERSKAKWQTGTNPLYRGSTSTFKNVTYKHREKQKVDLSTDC
T5 sequence (P26012 43-684 limits assumed, one chain of several): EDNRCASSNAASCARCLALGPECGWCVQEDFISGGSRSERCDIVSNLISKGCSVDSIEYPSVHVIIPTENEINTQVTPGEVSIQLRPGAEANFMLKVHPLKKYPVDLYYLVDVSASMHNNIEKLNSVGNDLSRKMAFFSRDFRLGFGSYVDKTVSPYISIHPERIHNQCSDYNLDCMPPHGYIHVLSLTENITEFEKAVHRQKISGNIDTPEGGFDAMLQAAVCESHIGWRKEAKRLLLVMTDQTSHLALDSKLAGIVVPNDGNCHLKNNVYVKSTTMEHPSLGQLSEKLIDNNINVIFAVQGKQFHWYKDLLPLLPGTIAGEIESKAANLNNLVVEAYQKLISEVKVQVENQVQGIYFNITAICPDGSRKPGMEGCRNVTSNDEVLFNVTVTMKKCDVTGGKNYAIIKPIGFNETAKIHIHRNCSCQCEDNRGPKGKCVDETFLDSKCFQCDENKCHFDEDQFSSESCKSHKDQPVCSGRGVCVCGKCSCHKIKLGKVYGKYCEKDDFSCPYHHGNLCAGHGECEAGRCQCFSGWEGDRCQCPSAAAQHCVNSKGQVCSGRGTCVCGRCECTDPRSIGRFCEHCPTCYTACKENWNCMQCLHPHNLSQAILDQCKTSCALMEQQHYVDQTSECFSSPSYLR
T4 sequence (P18084 24-719 limits assumed, one chain of several): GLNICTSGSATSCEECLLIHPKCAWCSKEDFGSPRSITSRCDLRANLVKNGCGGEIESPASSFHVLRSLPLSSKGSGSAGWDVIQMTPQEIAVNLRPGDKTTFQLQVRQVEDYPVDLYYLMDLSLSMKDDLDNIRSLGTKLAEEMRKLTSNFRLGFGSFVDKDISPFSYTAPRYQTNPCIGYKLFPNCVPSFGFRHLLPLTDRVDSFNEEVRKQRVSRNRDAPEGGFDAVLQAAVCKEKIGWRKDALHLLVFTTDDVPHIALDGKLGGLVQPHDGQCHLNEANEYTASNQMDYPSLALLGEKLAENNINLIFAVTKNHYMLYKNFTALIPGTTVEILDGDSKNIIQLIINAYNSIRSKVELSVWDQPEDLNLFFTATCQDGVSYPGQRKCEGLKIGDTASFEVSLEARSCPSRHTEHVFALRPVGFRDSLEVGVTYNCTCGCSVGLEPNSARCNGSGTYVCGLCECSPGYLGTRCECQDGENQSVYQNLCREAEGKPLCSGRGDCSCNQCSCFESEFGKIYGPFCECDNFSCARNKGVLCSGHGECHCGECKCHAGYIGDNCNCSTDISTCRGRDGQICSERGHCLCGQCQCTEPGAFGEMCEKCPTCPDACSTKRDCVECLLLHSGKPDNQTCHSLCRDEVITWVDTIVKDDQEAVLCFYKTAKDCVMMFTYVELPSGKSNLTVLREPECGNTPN

binding result [1]: binds | binding result [2]: binds
B1: h2A2 HCLG humanized antibody (antibody, human IgG1, kappa, V domains shown)
VH: QFQLVQSGAEVKKPGASVKVSCKASGYSFTDYNVNWVRQAPGQGLEWIGVINPKYGTTRYNQKFKGRATLTVDKSTSTAYMELSSLRSEDTAVYYCTRGLNAWDYWGQGTLVTVSS
VL: DIQMTQSPSSLSASVGDRVTITCGASENIYGALNWYQQKPGKAPKLLIYGATNLEDGVPSRFSGSGSGRDYTFTISSLQPEDIATYYCQNVLTTPYTFGQGTKLEIKR
notes: Labelled with AlexaFluor-647 in the saturation assay; also called humanized 2A2 HCLG
binding result [3]: no binding (tested: 1 pM-67 nM (10 ug/ml)) | binding result [4]: no binding (tested: 1 pM-67 nM (10 ug/ml)) | binding result [5]: no binding (tested: 1 pM-67 nM (10 ug/ml)) | binding result [6]: no binding (tested: 1 pM-67 nM (10 ug/ml))
